Results: patent publication US10704030B2, “P450-BM3 variants with improved activity” (Codexis, Inc., priority 2015, dated 2020)

How the values were obtained:
Format in all cases: biochemical
[1] = Validation of generalist properties: oxidation of diclofenac by lyophilized P450-BM3 variant, UPLC-MS; details: [Diclofenac] = 1 mM; for TON: TON = [substrate]*% conversion/[P450]
How it was run: (§1)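 Lyophilized lysate of E. coli-expressed P450-BM3 variant (stock standardized to 12 μM heme) was incubated 24 h at 30 °C with 1 or 2 mM substrate, 1.0 mM NADP+, 25 mM glucose, 0.5 mg/mL glucose dehydrogenase and 5% DMSO in 100 mM potassium phosphate. Acetonitrile-quenched samples were analyzed by UPLC-MS (positive ESI).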

[2] = Validation of generalist properties: oxidation of loratadine by lyophilized P450-BM3 variant, UPLC-MS; details: [Loratadine] = 1 mM; for TON: TON = [substrate]*% conversion/[P450]
How it was run: as §1

[3] = Validation of generalist properties: oxidation of imatinib by lyophilized P450-BM3 variant, UPLC-MS; details: [Imatinib] = 1 mM; for TON: TON = [substrate]*% conversion/[P450]
How it was run: as §1

[4] = Validation of generalist properties: oxidation of gefitinib by lyophilized P450-BM3 variant, UPLC-MS; details: [Gefitinib] = 1 mM; for TON: TON = [substrate]*% conversion/[P450]
How it was run: as §1

[5] = Validation of generalist properties over the four substrates screened
Experimental: For the production of lyophilized protein powders, LB agar plates supplemented with chloramphenicol (30 μg/mL) were streaked with E. coli containing a desired B. megaterium P450-BM3 variant in an IPTG-inducible vector. The plates were grown at 37° C. for 16 hrs before single clones were selected to inoculate a 15 mL Falcon™ tube (Fisher) containing TB media (3 mL) supplemented with chloramphenicol (30 μg/mL). The tube was shaken at 200 rpm, 30° C., and 85% humidity for 20-24 h to grow the cultures to saturation. Then, 2.5 mL of the overnight culture was used to inoculate sterile 1 L flasks containing TB medium (250 mL) supplemented with chloramphenicol (30 μg/mL), trace element solution (as described above), and 0.05 g/L ammonium iron (III) citrate. After being shaken at 250 rpm, 30° C., and 85% humidity to an OD600 of 0.8-1.2, P450 expression was induced by addition of IPTG (500 uM) and the heme precursor 5-aminolevulinic acid (5-ALA) to a final concentration of 500 uM. The cultures were grown for additional 20-24 hours and centrifuged in pre-weighed 250 mL centrifuge bottles for 20 minutes at 4000 rpm, 4° C. The supernatants were discarded, and the centrifuge bottles containing cell pellets were weighed. The pellets were resuspended in 50 mM potassium phosphate buffer with 2 mM DTT, pH 8.0 (5 mL of buffer per gram of cell pellet). The cells were lysed using a microfluidizer homogenizer, and the suspensions of cells and lysate were collected in sterile 50 mL centrifuge tubes. The samples were centrifuged for 30 minutes at 10,000 rpm, 4° C. The clarified lysate was collected into a plastic petri plate and frozen at −80° C. prior to lyophilization. The enzyme-containing lysates were lyophilized using standard methods known in the art.
Enzyme stocks (˜12 μM) were prepared by dissolving ˜20 mg of each enzyme in 100 mM potassium phosphate buffer, pH 8.0 (1 mL). The concentration of each enzyme stock solution was determined by the UV-visible absorption spectroscopy (after centrifugation to remove particulates) and diluted to standardize at 12 μM heme protein. Substrate solutions were prepared by dissolving each substrate in DMSO to reach a final concentration of 20 mM or 40 mM. Reaction mix (235 μL) followed by enzyme solution (50 μL) was added to the plates. The substrate stock solution was added to the enzyme solutions (15 μL at the two different concentrations). Each reaction contained 100 mM potassium phosphate, 1.0 mM NADP+, 25 mM glucose, 0.5 mg/mL glucose dehydrogenase, 5% DMSO and substrate at 1 or 2 mM. Loratadine, imatinib, and gefitinib (See, FIG. 1) were selected as substrates in addition to diclofenac to validate improved BM3 variants. The reactions were shaken at 450 rpm at 30° C. over 24 hours. All reactions were diluted with acetonitrile to a final concentration of 0.5 mM substrate. The plates were then centrifuged at 3,000 g for 1 hour at 20° C. The supernatant was diluted 1:1 with acetonitrile, filtered using a 0.4 micron filter, and analyzed by UPLC-MS.
For UPLC-MS analysis, the quenched and filtered reactions were transferred to 96-well HTP plates for analysis by UPLC on a Waters Acquity H-class system equipped with an autosampler. 1 uL of quenched sample was injected onto an Acquity UPLC HSS T3 column, 100 Å, (1.8 um; 2.1×100 mm). […] Column eluent was monitored by PDA (200-600 nm) prior to MS analysis in positive ESI mode (desolvation temperature 350° C., 3.25 kV spray voltage, cone voltage 25V). […]

[6] = fold improvement over parent MCYP-1.2-A12
[7] = fold improvement over parent MCYP-1.2-A07

Molecule | % Conv. [1] | TON [1] | FIOPC (A12) [1, 6] | % Conv. [2] | TON [2] | FIOPC (A12) [2, 6] | % Conv. [3] | TON [3] | FIOPC (A12) [3, 6] | % Conv. [4] | TON [4] | FIOPC (A12) [4, 6] | performance (% conversion at 1 mM substrate loading) over the substrates screened, in words [5] | FIOPC (A07) [1, 7] | FIOPC (A07) [2, 7] | FIOPC (A07) [3, 7] | FIOPC (A07) [4, 7]
Variant 17: P450-BM3 variant of SEQ ID NO: 6: K32R; C48S; Y52F; I95P; Q111R; G115R; I176V; L216Y; D232H; E349T; M491A; T577A; E619D; D722S (protein, P450_BM3, C48S; Y52F; I95P; Q111R; G115R; I176V; L216Y; D232H; E349T; M491A; T577A; E619D; D722S) MTIKEMPQPKTFGELKNLPLLNTDKPVQALMRIADELGEIFKFEAPGSVTRFLSSQRLIKEACDESRFDKNLSQALKFARDFLGDGLFTSWTHEPNWKKAHNILLPSFSQRAMKRYHAMMVDIAVQLVQKWERLNADEHIEVSEDMTRLTLDTIGLCGFNYRFNSFYRDQPHPFIVSMVRALDEVMNKLQRANPDDPAYDENKRQCQEDIKVMNDYVDKIIADRKARGEQSHDLLTQMLNGKDPETGEPLDDGNISYQIITFLIAGHETTSGLLSFALYFLVKNPHVLQKVAEEAARVLVDPVPSYKQVKQLKYVGMVLNEALRLWPTAPAFSLYAKEDTVLGGEYPLTKGDEVMVLIPQLHRDKTIWGDDVEEFRPERFENPSAIPQHAFKPFGNGQRACIGQQFALHEATLVLGMMLKHFDFEDHTNYELDIKETLTLKPEGFVVKAKSKKIPLGGIPSPSTEQSAKKVRKKAENAHNTPLLVLYGSNAGTAEGTARDLADIAMSKGFAPQVATLDSHAGNLPREGAVLIVTASYNGHPPDNAKQFVDWLDQASADEVKGVRYSVFGCGDKNWAATYQKVPAFIDETLAAKGAENIADRGEADASDDFEGTYEEWRDHMWSDVAAYFNLDIENSEDNKSTLSLQFVDSAADMPLAKMHGAFSTNVVASKELQQPGSARSTRHLEIELPKEASYQEGDHLGVIPRNYEGIVNRVTARFGLSASQQIRLEAEEEKLAHLPLAKTVSVEELLQYVELQDPVTRTQLRAMAAKTVCPPHKVELEALLEKQAYKEQVLAKRLTMLELLEKYPACEMKFSEFIALLPSIRPRYYSISSSPRVDEKQASITVSVVSGEAWSGYGEYKGIASNYLAELQEGDTITCFISTPQSEFTLPKDPETPLIMVGPGTGVAPFRGFVQARKQLKEQGQSLGEAHLYFGCRSPHEDYLYQEELENAQSEGIITLHTAFSRMPNQPKTYVQHVMEQDGKKLIELLDQGAHFYICGDGSQMAPAVEATLMKSYADVHQVSEADARLWLQQLEEKGRYAKDVWAG | ++++ (15.01-20.00) | ‡‡‡‡ (10000-50000) | * (0.0-3.0) | + (0-5.00) | ‡ (0-1000) | * (0.0-3.0) | ++++ (15.01-20.00) | ‡‡‡‡ (10000-50000) | **** (10.01-15.00) | ++++ (15.01-20.00) | ‡‡‡‡ (10000-50000) | *** (5.01-10.0) | improved and significant activity for three out of four substrates screened | – | – | – | –
Variant 14: P450-BM3 variant of SEQ ID NO: 4: C48S; I95P; G115R; L216Y; D232H; M491A; N574T; D722S (protein, P450_BM3, I95P; G115R; L216Y; D232H; M491A; N574T; D722S) MTIKEMPQPKTFGELKNLPLLNTDKPVQALMKIADELGEIFKFEAPGSVTRYLSSQRLIKEACDESRFDKNLSQALKFARDFAGDGLVTSWTHEPNWKKAHNILLPSFSQQAMKRYHAMMVDIAVQLVQKWERLNADEHIEVSEDMTRLTLDTIGLCGFNYRFNSFYRDQPHPFIISMVRALDEVMNKLQRANPDDPAYDENKRQCQEDIKVMNDYVDKIIADRKARGEQSHDLLTQMLNGKDPETGEPLDDGNISYQIITFLIAGHETTSGLLSFALYFLVKNPHVLQKVAEEAARVLVDPVPSYKQVKQLKYVGMVLNEALRLWPTAPAFSLYAKEDTVLGGEYPLEKGDEVMVLIPQLHRDKTIWGDDVEEFRPERFENPSAIPQHAFKPFGNGQRACIGQQFALHEATLVLGMMLKHFDFEDHTNYELDIKETLTLKPEGFVVKAKSKKIPLGGIPSPSTEQSAKKVRKKAENAHNTPLLVLYGSNAGTAEGTARDLADIAMSKGFAPQVATLDSHAGNLPREGAVLIVTASYNGHPPDNAKQFVDWLDQASADEVKGVRYSVFGCGDKTWATTYQKVPAFIDETLAAKGAENIADRGEADASDDFEGTYEEWREHMWSDVAAYFNLDIENSEDNKSTLSLQFVDSAADMPLAKMHGAFSTNVVASKELQQPGSARSTRHLEIELPKEASYQEGDHLGVIPRNYEGIVNRVTARFGLSASQQIRLEAEEEKLAHLPLAKTVSVEELLQYVELQDPVTRTQLRAMAAKTVCPPHKVELEALLEKQAYKEQVLAKRLTMLELLEKYPACEMKFSEFIALLPSIRPRYYSISSSPRVDEKQASITVSVVSGEAWSGYGEYKGIASNYLAELQEGDTITCFISTPQSEFTLPKDPETPLIMVGPGTGVAPFRGFVQARKQLKEQGQSLGEAHLYFGCRSPHEDYLYQEELENAQSEGIITLHTAFSRMPNQPKTYVQHVMEQDGKKLIELLDQGAHFYICGDGSQMAPAVEATLMKSYADVHQVSEADARLWLQQLEEKGRYAKDVWAG | ++++ (15.01-20.00) | ‡‡‡‡ (10000-50000) | – | +++ (10.01-15.00) | ‡‡‡ (5001-10000) | – | +++ (10.01-15.00) | ‡‡‡ (5001-10000) | – | ++++ (15.01-20.00) | ‡‡‡‡ (10000-50000) | – | moderate activity for all four substrates | ** (3.01-5.0) | * (0.0-3.0) | * (0.0-3.0) | **** (10.01-15.00)
